Data: paper doi:10.1101/2023.09.24.559210

Legend:
[1] = target: JAM-A C-terminal 10mer peptide, N-terminally biotinylated; assay: BLI
[2] = target: nectin-1 C-terminal 10mer peptide, N-terminally biotinylated; assay: BLI
[3] = target: JAM-A C-terminal 10mer peptide, N-terminally FITC-conjugated; assay: fluorescence polarisation
[4] = target: nectin-1 C-terminal 10mer peptide, N-terminally FITC-conjugated; assay: fluorescence polarisation

- Kd [1]: 5 µM
- bond lifetime [1]: 0.65 s
- Kd [2]: 3 µM
- bond lifetime [2]: 1.2 s
- Kd [3]: 5 µM
- Kd [4]: 3 µM
B1: human afadin PDZ domain (domain or fragment)
chain: IITVTLKKQNGMGLSIVAAKGAGQDKLGIYVKSVVKGGAADVDGRLAAGDQLLSVDGRSLVGLSQERAAELMTRTSSVVTLEVAKQG
